One molecule from US20160271248A1, “CXCR4 UP- AND DOWN-REGULATION FOR TREATMENT OF DISEASES OR DISORDERS” (priority 2013, published 2016) can be followed below.

This test deals with neuronal FHC. Nature of the test: gp120-mediated upregulation of neuronal FHC in bilaminar co-cultures with neutralizing antibodies or IL-1ra. Format: cell-based, rat. The following applies: IL-1β antibody 50 μg/mL, IL-1ra 1 μg/mL. The method, then: FIG. 13, comprising FIGS. 13A-13C, is a set of bar graphs and images illustrating that the presence of an IL-1β neutralizing antibody or IL-1 receptor antagonist abrogated gp120-mediated increases in FHC. Rat neurons cultured with a feeder layer of glia (8 DIV) were treated with either gp120IIIB (200 pM) or gp120BaL (200 pM) in the presence or absence of TNF-α antibody (40 μg/mL), IL-1β antibody (50 μg/mL) or IL-1ra (1 μg/mL). The presence of a TNF-α neutralizing antibody had no effect on the ability of gp120 to upregulate neuronal FHC. Neutralization or antagonism of IL-1β mitigated increases in neuronal FHC caused by gp120 in bilaminar cultures.
Rat cortical neurons were cultured in serum-free media in the presence of a glial feeder layer (Shimizu, et al., 2011, J. Vis. Exp. 57). This culture system largely preserves the in vivo environment, due to the presence of glia; however, it still enables direct investigation of neurons that can be separated by the glia before experiments. Selected studies were also performed in neurons grown in the absence of glia for the entire culture period, as indicated (Sengupta, et al., 2009, J. Neurosci. 29(8):2534-44). All experiments were conducted between 8-13 days in vitro (DIV).
Total protein extracts were obtained using standard protocols. […]

B1: IL-1ra: IL-1 receptor antagonist, an endogenous inhibitor of IL-1 signaling (protein, UniProt P25086 27-178, looked up)
Interleukin-1 receptor …: HPAGKRPCKMQAFRIWDTNQKTFYLRNNQLIAGYLQGPNTKLEEKIDMVPIDFRNVFLGIHGGKLCLSCVKSGDDTKLQLEEVNITDLNKNKEEDKRFTFIRSETGPTTSFESLACPGWFLCTTLEADHPVSLTNTPKEPCTVTKFYFQEDQ
For B1, the “effect on gp120-induced upregulation of neuronal FHC” value (gp120IIIB or gp120BaL 200 pM, TNF-α antibody 40 μg/mL) is reported as “completely blocked”. The “FHC protein levels, treatment alone” value (without gp120) is “no significant effect on FHC protein levels”.
